Paper PMC11286772, “Structural basis of antagonist selectivity in endothelin receptors” (Cell Discovery, 2024)
Numbering of substitutions follows the chain as printed.

Experiments:
ETA WT = target: T1, ETA WT (Homo sapiens, UniProt P25101); assay: Calcium mobilization assay, antagonist mode (ET-1 stimulated), CHO-K1 cells; type: cell-based
T1 construct: expressed in transfected cells; host or cells: CHO-K1
T1 sequence (P25101 21-427): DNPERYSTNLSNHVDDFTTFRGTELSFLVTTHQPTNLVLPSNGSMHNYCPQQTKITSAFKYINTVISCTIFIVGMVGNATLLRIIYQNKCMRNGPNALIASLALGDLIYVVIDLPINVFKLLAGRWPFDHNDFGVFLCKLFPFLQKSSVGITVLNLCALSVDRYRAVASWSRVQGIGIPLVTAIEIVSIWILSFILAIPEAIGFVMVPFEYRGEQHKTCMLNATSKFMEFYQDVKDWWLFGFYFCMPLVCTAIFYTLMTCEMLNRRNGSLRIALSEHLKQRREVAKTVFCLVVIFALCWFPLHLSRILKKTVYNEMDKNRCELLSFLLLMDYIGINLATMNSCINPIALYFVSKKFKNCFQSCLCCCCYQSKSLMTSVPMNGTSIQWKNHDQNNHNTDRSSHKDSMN
Experimental: CHO-K1 cells were cultured in Ham’s F-12K (Kaighn’s) Medium (Gibco-Thermo Fisher Scientific) supplemented with 10% (v/v) fetal bovine serum (FBS; Gibco-Thermo Fisher Scientific), and 100 U/mL Penicillin-Streptomycin (Gibco-Thermo Fisher Scientific) in a humidified incubator at 37 °C with 5% CO2. Cells were seeded in 6-cm dishes overnight; when the density reached 60%–80%, the cells were transferred to F12K Medium supplemented with 10% FBS and transfected with 1.5 μg DNA encoding the ETA WT or mutants or 3 μg DNA encoding the ETB WT or mutants using TransIT2020 (Mirus Biosciences). The next day, transfected cells were harvested from the plate using Versene buffer (Gibco-Thermo Fisher Scientific) and seeded into black-sided, clear-bottomed 384-well plates (Agilent) at a density of 1,5000 cells per well. After 20 h, the 1% dFBS medium was removed, and cells were loaded with 20 μL/well of 1× Calcium 6 dye (Molecular Devices) and incubated at 37 °C for 1 h in the dark. […] All data were analyzed using GraphPad Prism 8 and the data are from at least three independent replicate experiments. All plots are shown as means ± SEM. Data were determined using one-way ANOVA followed by Dunnett’s multiple test compared with WT. The top value was normalized to 100% and the bottom value was normalized to 0% for the final presentation. […]

ETA G233^ECL2A = target: T2, ETA G233^ECL2A (Homo sapiens, UniProt P25101, G233A); assay: Size exclusion chromatography analysis of Fab301 binding; details: ETA G233^ECL2A mutant vs WT
T2 construct: expressed in transfected cells; host or cells: CHO-K1
T2 sequence (P25101 21-427 G233A): T1 sequence (P25101 21-427) with G213A
From the text: (§1) To pinpoint the exact ECL2 residues involved in binding, we performed an extensive alanine scanning mutagenesis. Our size exclusion chromatography analysis identified that the region spanning residues 230^ECL2–235^ECL2 in ETA, and in particularly, residues R232^ECL2 and G233^ECL2, are crucial for Fab301 binding. […] Moreover, the hydrophobic interactions at this interface are crucial for antibody binding, as confirmed by our calcium mobilization assay on Fab301 (Supplementary Fig. S9b). Within this model, E230^ECL2 establishes hydrogen bonds with the CDRL1 and CDRL2 regions of Fab301, whereas Y231^ECL2 and E234^ECL2, together with R232^ECL2, participate in a complex hydrogen bond network within the CDRH3 region of Fab301 (Fig. 6c).

ETA R232^ECL2A = target: T3, ETA R232^ECL2A (Homo sapiens, UniProt P25101, R232A); assay: as above; details: ETA R232^ECL2A mutant vs WT
T3 construct: expressed in transfected cells; host or cells: CHO-K1
T3 sequence (P25101 21-427 R232A): T1 sequence (P25101 21-427) with R212A
From the text: as §1

- Effect on ET-1-induced ETA signaling (ETA WT): antagonistic effects
- Fab301's binding to ETA (ETA G233^ECL2A): near-complete loss
- Fab301's binding to ETA (ETA R232^ECL2A): near-complete loss
B1: Fab301: ETA-specific antibody Fab fragment produced from Getagozumab (antibody, V domains shown)
VH: QVTLKESGPTLVKPTQTLTLTCTFSGFSLTTSGLGVAWIRQPPGKALEWLAHIWSDGDTRYYPALKNRLTITKDTSKNQVVLTMTNMDPVDTATYYCAHMKDDSLYFDNWGQGTLVTVSS
VL: EIVLTQSPDFQSVTPKEKVTITCRASQNIGTSIHWYQQKPDQYPKLLIKYASKSISGVPSRFSGSGSGTDFTLTINSLEAEDAATYYCQHSYSFPWTFGQGTKVEIK
